This note sets out measurements from the supplement of paper PMC12042874.

± gives the uncertainty stated by the source.

A short description of the data set: amyloid nucleation score (Sup35N fusion, yeast selection) (log enrichment); library NNK3; higher = more nucleation; inactive = no reads after selection. The essentials:
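Growth for 7 days at 30°C on medium lacking adenine and uracil followed a 24-hour induction with 100 μM copper sulfate of psi-negative yeast expressing peptides of 20 random codons fused to Sup35N. Input and output plasmid inserts were sequenced with Illumina, and sequences with under 100 input reads were excluded. Nucleation score is the DiMSum log enrichment of output over input reads, centred on the mode score of non-aggregating sequences.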
Take CCIYQHIFYMRTYCIRT: the amyloid nucleation score entry was “inactive”. Then SVTLRATGSGNRRYDAIRNY, with “inactive”; and FVQSGLFFMCDGSCGLLRVF, with “inactive”; and QALTFIMWETDTSHGTCLNG, with 1.46 ± 0.07.

Take SSSAFCGVAIRALIAGGKGY: the amyloid nucleation score result was “inactive”.

MCPHKGIRSISLMIG: the amyloid nucleation score result is “inactive”. For LCDVQNTNNW the value was “inactive”; for FFLRSGCTIWTNSK, “inactive”.

For MRNVVSSISRCFDMKAVQQR, the amyloid nucleation score result is “inactive”. For DCMNGLVCFFMMCRGSLIRD the value was “inactive”; for LFFYNWVICRSNRYHGL, “inactive”. Then LMAVHMGMCMHEILHAVSLR, with “inactive”. Then CCVDPLAELLICMTALIASR, with “inactive”; and DGMTKFRWSCVRWVCG, with “inactive”. As for SYNTYSVYGWGKGPRNYDWQ, the amyloid nucleation score result was “inactive”. Then FVMTIM, with “inactive”; and WWRKPLTFNDRIWRLRKHRS, with “inactive”; and RKGHDVVAVYWADLHSSGIV, with “inactive”. For CVNMLRKTVIYFLHFPAYYR the value was “inactive”.

Regarding NGFLNSINGTVMVQGYSTAF, the amyloid nucleation score result was “inactive”.

As for RDYKAHYLRCLYLWTMSLP, the amyloid nucleation score result is “inactive”. For ILVTLMVYIPHEYISVINLL the value was “inactive”.

For the substance DLNIIRISAYLCLANCFPST, the amyloid nucleation score turned out to be 2.37 ± 0.054. Regarding CRCNWENCCMDQL, the amyloid nucleation score result was “inactive”. For YYIYIYMCRLLVYIGFHFYW the value was “inactive”; for RWCYLTEKKFSGLFNL, “inactive”; for GISALSVWFCISDRRSDQDH, 2.63 ± 0.057. Then LRLSGVMHRTFYCVVSGHGR, with “inactive”; and YLLRHILSIWKGWDWGTSQ, with “inactive”. With YRRKVELIRSLRW, the amyloid nucleation score result was “inactive”. Then CFRVYVPNSKSDDL, with “inactive”; and LAFFTHNIYF, with 1.97 ± 0.1. Then SSRRSNYASSDPIWIVSLFG, with “inactive”; and SDSSYSYTVF, with “inactive”. For EDHCSLFKLSAFTAYTGLAL the value was “inactive”; for HLRLYCHPMNFRWHRRYYEP, 0.249 ± 0.4; for STCKKNWNIARRI, “inactive”.

As for VVEFRNFLGIM, the amyloid nucleation score result was “inactive”. For FYVLNMNDLTSGLDMHVKS the value was “inactive”. Then WFSYQFV, with “inactive”. For YSILYKSYYLRMHWVVASRL the value was “inactive”; for NNRDDK, “inactive”; for LTVRKSY, “inactive”. Take RSFHYRIACESNLAVEVHFR: the amyloid nucleation score was determined as 1.74 ± 0.066. Then EGSHVPIILGYREFCVFILT, with “inactive”; and LSFTHSSDTECCGER, with “inactive”; and ILYVLCIFLCGAAIFSLTVL, with “inactive”. For the substance LPIKMGMLLSICDLLG, the amyloid nucleation score entry was “inactive”. Consider GNWWCNCTQYNLGMMDSALG, for which the amyloid nucleation score was 1.98 ± 0.071. Then WKFINDIASN, with “inactive”; and GQSNMFCNWTFANVKRCNL, with 2.33 ± 0.071; and LIRCCFPHMSGVLFMKFTLT, with “inactive”.

As to NLNKNRLLMTMHWNRVFLMS, the amyloid nucleation score result is “inactive”.

In the case of YHSSVCTDVIYGTTYWGCAV, the amyloid nucleation score result is “inactive”. For PSMKL the value was “inactive”; for ALSNYVFLEVTLQTWVVIEV, “inactive”. For KIMCGGTVSERETRTLHQSG the value was “inactive”.

As to SWVTVYTVMRVWVTFGNRRR, the amyloid nucleation score entry is “inactive”. Then IDNMAVIYWTVNFVCRVW, with 1.26 ± 0.085; and DRVDIRATADELGLR, with “inactive”. For SFSRCLNSLEVRNKNSWWVG the value was -0.181 ± 0.75; for RTAWHMCLFCLNVTNLSWLM, 2.15 ± 0.052. For DFRRANGEYWLTAAPMLIHT the value was 0.396 ± 0.28; for CRRRYSDLSIYLLVSNDVIV, “inactive”. ALNWISYREMHIFIAYFADS: the amyloid nucleation score entry was “inactive”. For SNIGHM the value was “inactive”; for LDEFY, “inactive”. Then FVVFCRNPNSGLGNCTVSCD, with “inactive”; and LMSYSRFGCSDSYLNVDSSA, with “inactive”; and VSLILFGRIFFHL, with “inactive”. For LFYSRGHLSGLGLGVMAPFI the value was “inactive”. With SINCTYPVRND, the amyloid nucleation score result is “inactive”. For METCPLCIICLYGKWIRFSR the value was “inactive”; for NFRCDICLPNLTRY, 0.313 ± 0.16. MHAMCQLWCSS: the amyloid nucleation score is -0.323 ± 1.4. On to CHNVLWRLKRFHASRCTGDM, for which the amyloid nucleation score result is “inactive”. For SYSLNNYMTKLVWIYVSWLL the value was “inactive”; for RLPPDSQMPSFYCCVDL, -0.144 ± 1.1. Then GDHSDWRKRGSLLNGVVLCV, with -0.5 ± 1.5.

VWGAHPLFGSISVARTISNW: the amyloid nucleation score result was “inactive”.

Consider TNCGNQTILFIIYVTILEVC, for which the amyloid nucleation score was 0.397 ± 0.14. Then DGAEDCRS, with -1.03 ± 2.5; and PYTWAMHLNLLITTDR, with -0.032 ± 0.54; and YHLYDETMCMP, with “inactive”. For VHFYWS the value was “inactive”; for GRCRITKSLGGSSQTNGYWV, “inactive”.

With IDLSAMFFAFFVIFVFVWIW, the amyloid nucleation score result is “inactive”. For the substance IEVQFENFSCSR, the amyloid nucleation score result is “inactive”. For QDPMLTCGGRWDFTCAGEVP the value was “inactive”; for SSDMFFRYESPVH, “inactive”; for YLHVVTWLMNACPGQPRHWL, “inactive”. Then AFKGRLLG, with “inactive”; and HCQQGS, with “inactive”.

PDVDLTTMLNNNMNYMYVKI: the amyloid nucleation score entry is “inactive”. Then YGVLS, with “inactive”; and DGEASTRVSCGDDIFRKTSS, with 1.03 ± 0.16; and TVQNVLCHCMMSNMAYWGHQ, with 2.63 ± 0.082.
